Test results taken from patent US20260217814 (published 2026).
Read-outs that look alike come from different tables or passages of the source.

Key:
human IL-17A [1] = target: T1, human IL-17A (human); experiment: SPR, capture setup
T1 chain: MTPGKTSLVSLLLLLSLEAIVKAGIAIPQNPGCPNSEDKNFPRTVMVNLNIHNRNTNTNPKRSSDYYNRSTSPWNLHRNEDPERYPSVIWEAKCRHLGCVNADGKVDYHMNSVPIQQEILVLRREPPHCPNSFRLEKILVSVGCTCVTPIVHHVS

IL-17D = target: T2, IL-17D (human); experiment: competition
T2 chain: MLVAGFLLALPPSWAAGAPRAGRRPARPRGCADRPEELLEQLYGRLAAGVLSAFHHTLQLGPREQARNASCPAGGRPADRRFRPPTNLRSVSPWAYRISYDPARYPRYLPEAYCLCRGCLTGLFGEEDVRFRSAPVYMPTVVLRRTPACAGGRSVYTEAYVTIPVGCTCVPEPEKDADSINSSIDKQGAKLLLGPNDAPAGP

IL-17F = target: T3, IL-17F (human); experiment: competition ELISA
T3 chain: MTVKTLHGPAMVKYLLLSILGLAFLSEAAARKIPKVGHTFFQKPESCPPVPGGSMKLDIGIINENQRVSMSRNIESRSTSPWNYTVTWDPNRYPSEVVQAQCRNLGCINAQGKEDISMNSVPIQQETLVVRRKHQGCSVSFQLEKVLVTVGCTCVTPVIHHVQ

IL-17E = target: T4, IL-17E (human); experiment: competition ELISA
T4 chain: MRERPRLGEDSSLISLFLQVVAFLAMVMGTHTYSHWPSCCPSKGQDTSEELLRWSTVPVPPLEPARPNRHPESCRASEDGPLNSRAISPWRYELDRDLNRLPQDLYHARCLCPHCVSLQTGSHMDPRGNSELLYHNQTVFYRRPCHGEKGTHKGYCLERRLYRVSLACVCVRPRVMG

cynomolgus IL-17A [2] = target: T5, cynomolgus IL-17A (cynomolgus); experiment: SPR
T5 chain: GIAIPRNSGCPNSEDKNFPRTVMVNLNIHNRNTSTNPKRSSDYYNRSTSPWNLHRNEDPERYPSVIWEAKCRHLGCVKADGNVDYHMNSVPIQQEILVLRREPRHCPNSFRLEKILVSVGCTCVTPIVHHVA

human IL-17A [3] = target: T1, human IL-17A; experiment: SPR, direct setup
IL-17C = target: T6, IL-17C (human); experiment: competition ELISA
T6 chain: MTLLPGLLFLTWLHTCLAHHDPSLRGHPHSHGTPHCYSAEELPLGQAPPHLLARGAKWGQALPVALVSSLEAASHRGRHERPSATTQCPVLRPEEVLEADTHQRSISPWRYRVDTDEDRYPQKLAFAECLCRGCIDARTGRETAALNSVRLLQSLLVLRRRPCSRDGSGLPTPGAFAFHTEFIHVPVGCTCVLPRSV

IL-17B = target: T7, IL-17B (human); experiment: competition ELISA
T7 chain: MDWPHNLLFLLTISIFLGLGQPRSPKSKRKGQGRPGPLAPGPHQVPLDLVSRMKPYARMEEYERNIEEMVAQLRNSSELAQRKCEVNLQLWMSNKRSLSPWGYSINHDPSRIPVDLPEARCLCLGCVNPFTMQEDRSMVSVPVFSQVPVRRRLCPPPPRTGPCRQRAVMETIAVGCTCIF

cynomolgus serum albumin [4] = target: T8, cynomolgus serum albumin (cynomolgus); experiment: SPR, pH 5.5
T8 chain: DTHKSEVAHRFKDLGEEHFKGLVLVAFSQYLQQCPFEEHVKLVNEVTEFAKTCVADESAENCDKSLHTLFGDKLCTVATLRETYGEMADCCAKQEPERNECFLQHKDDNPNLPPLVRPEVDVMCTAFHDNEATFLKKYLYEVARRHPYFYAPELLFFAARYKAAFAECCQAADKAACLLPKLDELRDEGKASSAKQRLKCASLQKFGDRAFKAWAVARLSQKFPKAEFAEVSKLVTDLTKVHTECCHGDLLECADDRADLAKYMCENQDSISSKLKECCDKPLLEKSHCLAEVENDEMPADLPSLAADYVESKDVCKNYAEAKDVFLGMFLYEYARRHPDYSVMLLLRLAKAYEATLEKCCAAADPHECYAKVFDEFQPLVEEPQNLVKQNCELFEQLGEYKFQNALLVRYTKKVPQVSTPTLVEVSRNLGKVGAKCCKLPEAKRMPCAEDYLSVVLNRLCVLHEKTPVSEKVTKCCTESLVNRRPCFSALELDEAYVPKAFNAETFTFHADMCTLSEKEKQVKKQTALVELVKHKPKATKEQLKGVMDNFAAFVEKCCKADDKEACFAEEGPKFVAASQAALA

human serum albumin [5] = target: T9, human serum albumin (human, UniProt P02768); experiment: SPR, pH 5.5
cynomolgus serum albumin [6] = target: T8, cynomolgus serum albumin; experiment: SPR, pH 7.4
human serum albumin [7] = target: T9, human serum albumin; experiment: SPR, pH 7.4
human IL-17A [8] = target: T1, human IL-17A; experiment: SPR
cynomolgus IL-17A [9] = target: T5, cynomolgus IL-17A; experiment: SPR

B1: PRO571 (27-31-C04-sc01) (antibody)
chain: DIQMTQSPSSLSASVGDRVTITCQASESIYRYLSWYQQKPGKAPKLLIYLASTLTSGVPSRFSGSGSGTDFTLTISSLQPEDFATYYCQSNFGTASTTYYNTFGGGTKLTVLGGGGGSGGGGSGGGGSGGGGSEVQLVESGGGLVQPGGSLRLSCAASGFSFSGFYYMCWVRQAPGKGLEWIGCIDTGDGTTYYASWAKGRFTISRDNSKNTVYLQMNSLRAEDTAVYYCARDAAYGGYAYPAHGMDLWGQGTLVTVSS
- Kd (human IL-17A [1]): 0.12 nM
- binding result (IL-17D): no binding
- binding result (IL-17F): no binding
- binding result (IL-17E): no binding
- Kd (cynomolgus IL-17A [2]): 0.033 nM
- Kd (human IL-17A [3]): 0.04 nM
- binding result (IL-17C): no binding
- binding result (IL-17B): no binding

B2: A5 HSA arm (antibody)
chain 1: EVQLVESGGGLVQPGGSLRLSCAASGIDFSTYGISWVRQAPGKGLEWIAYIYPDYGITDYASWVNGRFTISLDNAQNTVYLQMNSLRAEDTAVYYCARSGSYYSRGWGAHYFNLWGQGTLVTVSSASTKGPSVFPLAPSSKSTSGGTAALGCLVKDYFPEPVTVSWNSGALTSGVHTFPAVLQSSGLYSLSSVVTVPSSSLGTQTYICNVNHKPSNTKVDKKVEPKSCGGGGSGGGGSDIQMTQSPSSLSASVGDRVTITCQASQTINYWLAWYQQKPGKAPKLLIYRASTLASGVPSRFSGSGSGTDFTLTISSLQPEDFATYYCQNYYYSTSRSYGFGGGTKLTVLGGGGGSGGGGSGGGGSGGGGSEVQLVESGGGLVQPGGSLRLSCAASGFSFSSDYWMCWVRQAPGKGLEWIGCIYAGDVDDTDYASWARGRFTISRDNSKNTVYLQMNSLRAEDTAVYYCARVDGFDITYFDLWGQGTLVTVSS
chain 2: DIQMTQSPSSLSASVGDRVTINCQASESISSWLAWYQQKPGKRPKLLIYKASTLASGVPSRFSGSGSGTDYTLTISSLQPEDFATYYCQGYYLDSSVDDNVFGGGTKLTVLGRTRTVAAPSVFIFPPSDEQLKSGTASVVCLLNNFYPREAKVQWKVDNALQSGNSQESVTEQDSKDSTYSLSSTLTLSKADYEKHKVYACEVTHQGLSSPVTKSFNRGECGGGGSGGGGSDIQMTQSPSSLSASVGDRVTITCQSSESVYSNNQLSWYQQKPGQPPKLLIYDASDLASGVPSRFSGSGSGTDFTLTISSLQPEDFATYYCAGGFSSSSDTAFGGGTKLTVLGGGGGSGGGGSGGGGSGGGGSEVQLVESGGGLVQPGGSLRLSCAASGFSLSSNAMGWVRQAPGKGLEYIGIISVGGFTYYASWAKGRFTISRDNSKNTVYLQMNSLRAEDTATYFCARDRHGGDSSGAFYLWGQGTLVTVSS
- Kd (cynomolgus serum albumin [4]): 0.795 nM
- Kd (human serum albumin [5]): 1.66 nM
- Kd (cynomolgus serum albumin [6]): 2.47 nM
- Kd (human serum albumin [7]): 2.69 nM

B3: A5 IL-17A arm (antibody)
chain 1: EVQLVESGGGLVQPGGSLRLSCAASGIDFSTYGISWVRQAPGKGLEWIAYIYPDYGITDYASWVNGRFTISLDNAQNTVYLQMNSLRAEDTAVYYCARSGSYYSRGWGAHYFNLWGQGTLVTVSSASTKGPSVFPLAPSSKSTSGGTAALGCLVKDYFPEPVTVSWNSGALTSGVHTFPAVLQSSGLYSLSSVVTVPSSSLGTQTYICNVNHKPSNTKVDKKVEPKSCGGGGSGGGGSDIQMTQSPSSLSASVGDRVTITCQASQTINYWLAWYQQKPGKAPKLLIYRASTLASGVPSRFSGSGSGTDFTLTISSLQPEDFATYYCQNYYYSTSRSYGFGGGTKLTVLGGGGGSGGGGSGGGGSGGGGSEVQLVESGGGLVQPGGSLRLSCAASGFSFSSDYWMCWVRQAPGKGLEWIGCIYAGDVDDTDYASWARGRFTISRDNSKNTVYLQMNSLRAEDTAVYYCARVDGFDITYFDLWGQGTLVTVSS
chain 2: DIQMTQSPSSLSASVGDRVTINCQASESISSWLAWYQQKPGKRPKLLIYKASTLASGVPSRFSGSGSGTDYTLTISSLQPEDFATYYCQGYYLDSSVDDNVFGGGTKLTVLGRTRTVAAPSVFIFPPSDEQLKSGTASVVCLLNNFYPREAKVQWKVDNALQSGNSQESVTEQDSKDSTYSLSSTLTLSKADYEKHKVYACEVTHQGLSSPVTKSFNRGECGGGGSGGGGSDIQMTQSPSSLSASVGDRVTITCQSSESVYSNNQLSWYQQKPGQPPKLLIYDASDLASGVPSRFSGSGSGTDFTLTISSLQPEDFATYYCAGGFSSSSDTAFGGGTKLTVLGGGGGSGGGGSGGGGSGGGGSEVQLVESGGGLVQPGGSLRLSCAASGFSLSSNAMGWVRQAPGKGLEYIGIISVGGFTYYASWAKGRFTISRDNSKNTVYLQMNSLRAEDTATYFCARDRHGGDSSGAFYLWGQGTLVTVSS
- Kd (human IL-17A [8]): 0.575 nM
- Kd (cynomolgus IL-17A [9]): 0.523 nM
